# From the supplement of paper PMC6757056
# ± gives the standard deviation of the averaged measurements.
# B1: library; a variant is named by its letters at N, in order (parent)
# chain: GCUGUCACCGAGAAACUGUGAAGUAUAUCUUAAACCUGGGCACUUAAAAGAUAUAUGGAGUUAGUAGUGCAACCUGCUCGGUCUGAUGAGUCCNNNNNNGGACGAAACAGC
# How the values were obtained:
# [1] = variants of: B1; experiment: FACS-Seq fitted mean relative fluorescence mCherry/BFP without ligand (log10 relative fluorescence); HEK293T; ligand: cyclic di-GMP (c-di-GMP-II aptamer); higher = higher reporter protein expression; conditions: ligand present: no
# In short: (§1)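 With or without ligand for 48 h, enriched HEK293T libraries carrying a lentiviral ribozyme-switch mCherry reporter and EF1α-BFP were sorted into 6 mCherry/BFP bins. Bin genomic DNA was amplified by PCR, barcoded and sequenced on MiSeq. Fluorescence was taken from normal fits to the resulting bin counts. Each fitted mean of log10(mCherry/BFP) was scaled to five spiked-in control ribozymes.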
# [2] = variants of: B1; experiment: normalized RNA/DNA level without ligand (relative to sTRSVctl = 100) (log10 (% of sTRSVctl)); HEK293T; ligand: cyclic di-GMP (c-di-GMP-II aptamer); higher = less ribozyme self-cleavage, higher mRNA level; conditions: reporter: mCherry (pCS4076), ligand present: no
# Description: (§2)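 Hammerhead (sTRSV) ribozyme switch libraries with a ligand aptamer grafted on stem I and a randomized N4-6 loop II, cloned into the 3' UTR of mCherry and transiently transfected into HEK293T cells; RNA-Seq 72 h post transfection with ligand added 1 h before transfection; RNA read count / plasmid DNA read count normalized to the non-cleaving sTRSVctl (x100), log10; sequences with >100 DNA reads. FACS-Seq: lentiviral library sorted into 6 bins after 48 h ligand, log-normal fit mean of mCherry/BFP scaled to controls. Printed sequences are partial switch sequences.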
# [3] = variants of: B1; experiment: FACS-Seq fitted mean relative fluorescence mCherry/BFP with ligand (log10 relative fluorescence); HEK293T; ligand: cyclic di-GMP (c-di-GMP-II aptamer); ligand concentration (+) FACS-Seq: 1 mM; higher = higher reporter protein expression; conditions: ligand present: yes
# In short: as §1
# [4] = variants of: B1; experiment: normalized RNA/DNA level with ligand (relative to sTRSVctl = 100) (log10 (% of sTRSVctl)); HEK293T; ligand: cyclic di-GMP (c-di-GMP-II aptamer); ligand concentration (+) RNA-Seq: 1 mM; higher = less ribozyme self-cleavage, higher mRNA level; conditions: reporter: mCherry (pCS4076), ligand present: yes
# Description: as §2
Variant,FACS-Seq fitted mean (log10) [1],normalized RNA/DNA level without ligand (log10) [2],FACS-Seq fitted mean (log10) [3],normalized RNA/DNA level with ligand (log10) [4]
ACCUAA,-0.281 ± 0.029,1.57 ± 0.053,0.102 ± 0.075,1.76 ± 0.056
ACCUAU,-0.223 ± 0.079,1.59 ± 0.055,-0.113 ± 0.043,1.79 ± 0.11
GCGGUU,-0.562 ± 0.021,1.6 ± 0.044,-0.254 ± 0.0055,1.75 ± 0.11
CCUACC,-0.57 ± 0.25,1.757 ± 0.0078,-0.577 ± 0.048,1.85 ± 0.053
GCGUUU,-0.452 ± 0.069,1.6 ± 0.026,-0.302 ± 0.06,1.77 ± 0.14
UCGGAG,-0.311 ± 0.011,1.54 ± 0.088,0.0865 ± 0.03,1.72 ± 0.08
UCGGAU,-0.57 ± 0.024,1.43 ± 0.097,-0.239 ± 0.0084,1.68 ± 0.06
UCGGAA,-0.484 ± 0.069,1.34 ± 0.14,-0.286 ± 0.048,1.49 ± 0.11
GCUGCG,-1.43 ± 0.31,1.789 ± 0.016,-1.28 ± 0.14,1.87 ± 0.13
GCUGCA,0.156 ± 0.0048,1.77 ± 0.025,0.255 ± 0.059,1.85 ± 0.089
ACGUAU,-0.637 ± 0.067,1.34 ± 0.1,-0.336 ± 0.0036,1.54 ± 0.036
ACGUAA,-0.0329 ± 0.12,1.43 ± 0.079,0.314 ± 0.082,1.63 ± 0.087
CCGGAU,-0.339 ± 0.015,1.55 ± 0.074,-0.0202 ± 0.13,1.76 ± 0.1
CCGGAC,-0.253 ± 0.11,1.62 ± 0.034,-0.0326 ± 0.0056,1.75 ± 0.086
CCGGAA,-0.512 ± 0.023,1.28 ± 0.09,-0.209 ± 0.03,1.47 ± 0.12
GCUCUU,-0.277 ± 0.12,1.66 ± 0.07,-0.215 ± 0.015,1.82 ± 0.16
GCUCUA,-0.242 ± 0.011,1.64 ± 0.039,0.0781 ± 0.02,1.8 ± 0.025
ACUCCC,-0.621 ± 0.049,1.77 ± 0.049,-0.284 ± 0.087,1.87 ± 0.14
GCGCUA,-0.702 ± 0.086,1.65 ± 0.043,-0.433 ± 0.079,1.78 ± 0.17
GCGCUC,0.151 ± 0.12,1.45 ± 0.13,0.324 ± 0.017,1.62 ± 0.17
UCGGUC,-0.238 ± 0.16,1.675 ± 0.0093,0.0705 ± 0.033,1.83 ± 0.1
UCGGUA,-0.583 ± 0.023,1.31 ± 0.18,-0.2658 ± 0.00058,1.52 ± 0.054
UCGCAA,-0.351 ± 0.038,1.47 ± 0.019,-0.0919 ± 0.063,1.69 ± 0.18
UCUGAA,-0.341 ± 0.042,1.51 ± 0.079,-0.0714 ± 0.032,1.73 ± 0.099

Variant,FACS-Seq fitted mean (log10) [1],normalized RNA/DNA level without ligand (log10) [2],FACS-Seq fitted mean (log10) [3],normalized RNA/DNA level with ligand (log10) [4]
UCUGAU,-0.331 ± 0.024,1.6 ± 0.061,-0.0535 ± 0.0022,1.83 ± 0.14
GCCGAU,-0.47 ± 0.078,1.55 ± 0.034,-0.231 ± 0.064,1.74 ± 0.1
GCCGAC,-0.43 ± 0.062,1.48 ± 0.13,-0.145 ± 0.015,1.67 ± 0.089
UCUAAA,-0.692 ± 0.041,1.495 ± 0.0055,-0.441 ± 0.055,1.74 ± 0.15
UCUAAU,-0.491 ± 0.013,1.6 ± 0.017,-0.327 ± 0.062,1.78 ± 0.1
CCUGGC,-0.646 ± 0.017,1.68 ± 0.034,-0.459 ± 0.0093,1.82 ± 0.14
ACUCUU,-0.426 ± 0.095,1.636 ± 0.0073,-0.112 ± 0.0059,1.83 ± 0.11
ACUCAG,-0.836 ± 0.044,1.61 ± 0.031,-0.677 ± 0.16,1.77 ± 0.1
CCCGUC,-0.648 ± 0.28,1.73 ± 0.061,-0.317 ± 0.1,1.87 ± 0.16
CCCGUA,-0.351 ± 0.12,1.55 ± 0.067,-0.0502 ± 0.012,1.72 ± 0.055
CCGGUA,-0.505 ± 0.068,1.36 ± 0.12,-0.223 ± 0.059,1.61 ± 0.087
CCGGUU,-0.109 ± 0.11,1.592 ± 0.0094,0.264 ± 0.0069,1.78 ± 0.096
CCGGUG,-0.614 ± 0.039,1.27 ± 0.12,-0.397 ± 0.038,1.46 ± 0.11
GCGCGA,-0.455 ± 0.074,1.51 ± 0.12,-0.199 ± 0.081,1.65 ± 0.037
UCGCGA,-0.247 ± 0.071,1.668 ± 0.0022,0.0917 ± 0.061,1.8 ± 0.1
GCCGGU,0.00404 ± 0.21,1.63 ± 0.03,0.3204 ± 0.0024,1.79 ± 0.087
ACGGAA,-0.62 ± 0.042,1.31 ± 0.097,-0.325 ± 0.031,1.47 ± 0.13
ACGGAG,-0.541 ± 0.036,1.46 ± 0.12,-0.151 ± 0.062,1.61 ± 0.15
ACGGAU,-0.662 ± 0.045,1.29 ± 0.16,-0.374 ± 0.0087,1.4 ± 0.15
ACCUCC,0.0782 ± 0.15,1.78 ± 0.055,0.281 ± 0.037,1.86 ± 0.15
ACGGUA,-0.397 ± 0.031,1.37 ± 0.069,-0.0373 ± 0.057,1.57 ± 0.14
ACGGUU,-0.529 ± 0.031,1.22 ± 0.074,-0.237 ± 0.11,1.4 ± 0.1
CCCUCC,-0.844 ± 0.018,1.78 ± 0.029,-0.75619 ± 0.00069,1.89 ± 0.045
CCCUCA,-0.416 ± 0.038,1.58 ± 0.039,-0.195 ± 0.06,1.73 ± 0.17

Variant,FACS-Seq fitted mean (log10) [1],normalized RNA/DNA level without ligand (log10) [2],FACS-Seq fitted mean (log10) [3],normalized RNA/DNA level with ligand (log10) [4]
CCGUUG,-0.483 ± 0.093,1.28 ± 0.069,-0.2456 ± 0.00076,1.49 ± 0.1
ACGAUU,-0.694 ± 0.056,1.2 ± 0.13,-0.341 ± 0.036,1.41 ± 0.19
ACGAUG,-0.381 ± 0.017,1.55 ± 0.084,-0.168 ± 0.022,1.72 ± 0.14
GCUGAA,-0.497 ± 0.029,1.45 ± 0.035,-0.115 ± 0.0012,1.65 ± 0.097
GCUAUA,-0.262 ± 0.11,1.55 ± 0.058,-0.134 ± 0.099,1.73 ± 0.11
GCUAUG,-0.741 ± 0.034,1.58 ± 0.075,-0.505 ± 0.019,1.72 ± 0.078
ACUGCU,-0.0841 ± 0.15,1.616 ± 0.01,0.249 ± 0.013,1.8 ± 0.14
CCGCCA,-0.184 ± 0.045,1.645 ± 0.0073,0.127 ± 0.058,1.85 ± 0.14
ACUGAA,-0.493 ± 0.087,1.43 ± 0.09,-0.161 ± 0.014,1.64 ± 0.074
ACUGAU,-0.368 ± 0.075,1.43 ± 0.11,-0.128 ± 0.13,1.62 ± 0.11
UCGUAC,0.087 ± 0.015,1.653 ± 0.01,0.277 ± 0.023,1.81 ± 0.14
ACGUUU,-0.522 ± 0.028,1.32 ± 0.16,-0.336 ± 0.035,1.52 ± 0.078
CCGGCU,-0.0371 ± 0.0037,1.74 ± 0.033,0.118 ± 0.024,1.89 ± 0.077
CCGGGG,-0.589 ± 0.03,1.43 ± 0.022,-0.295 ± 0.011,1.62 ± 0.11
GCGCAU,-0.0572 ± 0.14,1.66 ± 0.058,0.0686 ± 0.025,1.8 ± 0.11
CCUGCC,-0.367 ± 0.12,1.79 ± 0.018,-0.0275 ± 0.059,1.89 ± 0.052
GCGGAA,-0.527 ± 0.013,1.33 ± 0.21,-0.19 ± 0.061,1.54 ± 0.1
GCGGAG,-0.301 ± 0.022,1.53 ± 0.13,-0.076 ± 0.067,1.7 ± 0.055
GCGGAC,-0.751 ± 0.049,1.33 ± 0.11,-0.511 ± 0.04,1.46 ± 0.045
GCGUGU,-0.15 ± 0.054,1.5 ± 0.085,0.114 ± 0.056,1.75 ± 0.083
GCGUGA,-0.266 ± 0.05,1.47 ± 0.068,-0.000275 ± 0.097,1.65 ± 0.088
ACCUGA,-0.424 ± 0.033,1.52 ± 0.032,-0.159 ± 0.035,1.72 ± 0.1
ACUAUA,-0.358 ± 0.029,1.53 ± 0.057,0.067 ± 0.087,1.72 ± 0.12
